Data from patent US20170305994A1 (Novo Nordisk, published 2017).

T1: human DR3 (full length, on cells) (human, UniProt Q93038 25-417)
T1 sequence: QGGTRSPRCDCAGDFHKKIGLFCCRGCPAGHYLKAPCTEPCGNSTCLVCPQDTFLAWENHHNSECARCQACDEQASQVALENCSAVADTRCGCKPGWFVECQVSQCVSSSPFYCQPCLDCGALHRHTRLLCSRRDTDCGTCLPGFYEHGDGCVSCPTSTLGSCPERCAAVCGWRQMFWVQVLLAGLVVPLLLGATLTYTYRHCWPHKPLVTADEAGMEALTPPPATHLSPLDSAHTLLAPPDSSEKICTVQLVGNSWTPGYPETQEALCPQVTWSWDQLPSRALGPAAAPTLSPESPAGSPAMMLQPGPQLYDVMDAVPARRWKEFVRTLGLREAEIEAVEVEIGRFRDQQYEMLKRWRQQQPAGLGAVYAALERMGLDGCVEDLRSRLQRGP

T2: human DR3 with the death domain deleted (ΔM339-P417 of SEQ ID NO:1), expressed on CHOK1SV cells (human, UniProt Q93038 25-338)
T2 construct: also called truncated DR3; hDR3 expressing CHO cells
T2 sequence: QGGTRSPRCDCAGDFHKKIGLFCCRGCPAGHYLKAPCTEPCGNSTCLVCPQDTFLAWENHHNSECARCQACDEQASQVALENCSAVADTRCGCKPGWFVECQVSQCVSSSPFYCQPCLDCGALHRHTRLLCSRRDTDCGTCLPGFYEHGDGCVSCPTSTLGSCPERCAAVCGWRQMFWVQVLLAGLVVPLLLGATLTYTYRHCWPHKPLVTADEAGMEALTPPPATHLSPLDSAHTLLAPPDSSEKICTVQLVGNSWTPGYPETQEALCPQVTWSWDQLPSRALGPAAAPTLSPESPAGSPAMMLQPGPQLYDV

T3: marmoset DR3 (transiently expressed on HEK293 cells) (marmoset, UniProt U3ENN5 27-418)
T3 sequence: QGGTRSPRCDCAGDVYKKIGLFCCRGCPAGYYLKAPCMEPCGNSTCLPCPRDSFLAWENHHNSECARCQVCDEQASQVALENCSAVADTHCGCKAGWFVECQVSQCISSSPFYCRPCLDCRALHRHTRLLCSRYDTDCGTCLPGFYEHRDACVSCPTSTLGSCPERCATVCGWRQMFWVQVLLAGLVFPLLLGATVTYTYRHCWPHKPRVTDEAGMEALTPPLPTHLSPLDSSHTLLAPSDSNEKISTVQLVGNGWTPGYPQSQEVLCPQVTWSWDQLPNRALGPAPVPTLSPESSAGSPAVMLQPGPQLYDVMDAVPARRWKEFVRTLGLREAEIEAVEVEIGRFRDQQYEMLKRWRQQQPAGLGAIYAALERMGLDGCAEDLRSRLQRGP

T4: cynomolgus DR3 (on HEK293 reporter cells) (cynomolgus, UniProt A0A2K5WJ09 98-464)
T4 sequence: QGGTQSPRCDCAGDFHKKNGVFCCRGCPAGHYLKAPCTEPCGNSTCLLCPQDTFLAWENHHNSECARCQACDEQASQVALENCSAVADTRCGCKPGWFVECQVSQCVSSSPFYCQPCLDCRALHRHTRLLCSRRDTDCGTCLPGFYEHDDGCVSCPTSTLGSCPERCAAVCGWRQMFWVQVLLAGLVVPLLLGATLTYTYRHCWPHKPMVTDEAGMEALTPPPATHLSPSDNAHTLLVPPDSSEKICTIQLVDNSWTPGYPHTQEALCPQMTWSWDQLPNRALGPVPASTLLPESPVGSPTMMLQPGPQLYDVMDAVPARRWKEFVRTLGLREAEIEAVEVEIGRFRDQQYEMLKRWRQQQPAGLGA

B1: 0148 (chimeric Fab of 5F13, human IgG4 constant domain, hinge Cys->Ser) (Fab, V domains shown)
VH: EVQLVESGGGLVKPGGSLKFSCAVSGFTFSSYVMSWVRQTPEKRLEWVAAISSDSTYTYYLDSVKGRFTISRDNAKNTLYLQMSSLRSEDTAMYYCARQTRSDAMDYWGQGTSVTVSS
VL: DIVLTQSPASLAVSLGQRATISCRASESVDNYGNSFMHWYQQKPGQPPKLLIYRASNLESGIPARFSGSGSRTDFTLTINPVEADDVAIYYCQQSNEDPLTFGAGTKLELKR
notes: IgG4-Ser, chimeric
B2: 0123 (chimeric Fab of 27F44, human IgG4 constant domain, hinge Cys->Ser) (Fab, V domains shown)
VH: EVKLVESGGGLVKPGGSLKLSCSASGFAFSNYDMSWVRQTPEKRLEWVAAFSSDGYTFYPDSLKGRFTISRDNARNTLYLQMSSLGSEDTALYCCARHADYANYPVMDYWGQGTSVTVSS
VL: DIVLAQSPASLLVSLGQRATISCRASKSVSTSGYSYMHWYQQKPGQPPKLLIYLASNLESGVPARFSGSGSGTDFTLNIHPVEEEDAATYYCQHSRELPLTFGAGTMLELKR
notes: murine variable domains, human IgG4 constant domain (IgG4-Ser)

How the values were obtained:
[1] = target: T1, human DR3 (full length, on cells); test: cell-based or functional assay
[2] = target: T2, human DR3 with the death domain deleted …; test: FACS on DR3 expressing cells; competitor Mab 0107
[3] = target: T2, human DR3 with the death domain deleted …; test: FACS on DR3 expressing cells; competitor Mab 0121
DR3 (ECD)-Fc = target: T5, DR3 (ECD)-Fc (human); test: HX-MS with hDR3 ECD-Fc
T5 construct: ECD of DR3, a linker with a TEV cleavage site and the Fc part of human IgG4; dimeric fraction used; also called DR3-Fc; hDR3-Fc
Method: The Leap robot was equipped with two temperature controlled stacks maintained at 20° C. for buffer storage and HX reactions and maintained at 2° C. for storage of protein and quench solution, respectively. The Waters HDX system furthermore contained a temperature controlled chamber holding the pre- and analytical columns, and the LC tubing and switching valves at 1° C. A separately temperature controlled chamber holds the pepsin column at 25° C. […] The resulting peptides were trapped and desalted on a VanGuard pre-column BEH C18 1.7 μm (2.1×5 mm (Waters Inc.)). Subsequently, the valves were switched to place the pre-column inline with the analytical column, UPLC-BEH C18 1.7 μm (1×100 mm (Waters Inc.)), and the peptides separated using a 9 min gradient of 10-40% B delivered at 200 μl/min from the nanoAQUITY UPLC system (Waters Inc.). The mobile phases consisted of A: 0.1% formic acid and B: 0.1% formic acid in CH₃CN. The ESI MS data, and the separate elevated energy (MS^E) experiments were acquired in positive ion mode using a Synapt G2 mass spectrometer (Waters Inc.).
All HX reactions were carried out at 20° C. and contained […] hDR3 in the absence or presence of […] Fab thus giving a 5 fold molar excess of Fab. […]

[4] = target: T2, human DR3 with the death domain deleted …; test: flow cytometry competition: Fab vs TL1A on hDR3-expressing CHO cells
DR3 (CRD1)-Fc = target: T6, DR3 (CRD1)-Fc (human); test: SPR
T6 construct: Amino acids 25-71 of DR3 fused to the Fc domain of human IgG4; purified to exclude oligomers (mainly dimeric)
Description: The extracellular moiety of DR3 is located at the aminoterminal portion of DR3 and is comprised of four TNF receptor cysteine-rich domains. Several fusion proteins were expressed and purified which contained parts of the extracellular domain of DR3 of increasing length fused to the Fc domain of a human IgG4. The DR3 proteins used for SPR analysis had been purified to exclude oligomerized material. These proteins were immobilized to a CM5 sensor chip using amine coupling chemistry. Binding of anti-DR3 antibodies termed 0070, 0072, 0073 and 0076, to the different DR3-Fc fusion proteins was tested by means of plasmon surface binding measurements on a Biacore T100 instrument (GE Healthcare). All of these antibodies inhibit binding of TL1A to DR3 in a FACS assay. These 4 antibodies bound to recombinant DR3 (CRD1)-Fc protein that contained only the aminoterminal CRD (SEQ ID NO:2) comprised of amino acids 25-71 of DR3.
The same analysis was also performed for some of the Fab fragments.

[5] = target: T1, human DR3 (full length, on cells); test: cell-based or functional assay; remark: listed apart in the source
[6] = target: T3, marmoset DR3 (transiently expressed on …); test: cell-based or functional assay
[7] = target: T1, human DR3 (full length, on cells); test: cell-based or functional assay; remark: listed apart in the source
[8] = target: T4, cynomolgus DR3 (on HEK293 reporter …); test: cell-based or functional assay
[9] = target: T4, cynomolgus DR3 (on HEK293 reporter …); test: cell-based or functional assay; remark: listed apart in the source

Binder	max % inhibition of TNFalpha, donor 1 [1]	max % inhibition of TNFalpha, donor 2 [1]	molar ratio Mab/Fab from which the Fab inhibits [2]	molar ratio Mab/Fab from which the Fab inhibits fully [3]	binding result (DR3 (ECD)-Fc)	IC50 [4]	max percentage inhibition [4]	binding result (DR3 (CRD1)-Fc)	IC50 at 40 ng/ml TL1A, I5 reporter cells [5]	IC50, TNFalpha inhibition, TL1A-activated CD4+ T cells, donor 1 [1]	IC50, TNFalpha inhibition, TL1A-activated CD4+ T cells, donor 2 [1]	IC50, TNFalpha inhibition, average (n 22) [1]	IC50 at 40 ng/ml TL1A, transient reporter HEK293 [6]	IC50 at 40 ng/ml TL1A, transient reporter HEK293 [7]	IC50 at 40 ng/ml TL1A, transient reporter HEK293 [8]	IC50 at 40 ng/ml TL1A, Lyda20 reporter cells [9]
B1	9.5%	-8.5%	100 Fab per Mab (molar ratio Mab/Fab 1:n)	3 Fab per Mab (molar ratio Mab/Fab 1:n)	binds	9.22 nM	33%	–	–	–	–	–	–	–	–	–
B2	83.5%	75.9%	–	–	–	0.443 nM	80%	binds	0.188 nM	0.301 nM	0.32 nM	0.208 nM	0.323 nM	0.33 nM	99 nM	236 nM
